Source: the supplement of paper PMC7125110
± gives the standard error. Fewer inactive variants are shown than the library holds.

B1: glmS ribozyme (parent)
chain: AUAAAAGCGCCAGAACUACAGAAAUGUAGUUGACGAGGAGGAGGUUUAUCGAAUUUUCGGCGGAUGCCUCCAAA

How the values were obtained:
Settings in all cases: with glucosamine-6-phosphate
glucosamine-6-phosphate [1] = variants of: B1; experiment: self-cleavage kobs at 160 uM GlcN6P; higher = faster cleavage; RNA array
How it was run: (§1)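 The measurements used barcoded ribozyme variants on sequenced MiSeq chips, transcribed in situ by E. coli RNA polymerase and tracked at 37 °C with a hybridised Cy3 probe. Glucosamine-6-phosphate, 40 μM to 10 mM in HEPES/KCl/Mg(OAc)2 buffer, was flowed in while tiles were imaged over ~14 h. Baseline-normalised signals, also normalised to non-cleaving reference variants, gave per-tile medians that were fit to one- or two-exponential decays for kobs. kcat and KM resulted from weighted Michaelis–Menten fits across concentrations.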

glucosamine-6-phosphate [2] = variants of: B1; experiment: self-cleavage kobs at 640 uM GlcN6P; higher = faster cleavage; RNA array
How it was run: as §1

glucosamine-6-phosphate [3] = variants of: B1; experiment: self-cleavage kobs at 2500 uM GlcN6P; higher = faster cleavage; RNA array
How it was run: as §1

glucosamine-6-phosphate [4] = variants of: B1; experiment: self-cleavage kobs at 10000 uM GlcN6P; higher = faster cleavage; RNA array
How it was run: as §1

| Variant | self-cleavage kobs at 160 uM GlcN6P (glucosamine-6-phosphate [1]) [s⁻¹] | self-cleavage kobs at 640 uM GlcN6P (glucosamine-6-phosphate [2]) [s⁻¹] | self-cleavage kobs at 2500 uM GlcN6P (glucosamine-6-phosphate [3]) [s⁻¹] | self-cleavage kobs at 10000 uM GlcN6P (glucosamine-6-phosphate [4]) [s⁻¹] |
| --- | --- | --- | --- | --- |
| C10U G29U U57C C67U U69G | 6.16e-05 ± 1.7e-05 | 8.17e-05 ± 1.9e-05 | 6.3e-05 ± 2e-05 |  |
| U31C G62A | < 1e-05 | < 1e-05 | < 1e-05 | < 1e-05 |
| G26U G35A C50G U56G | 6.16e-05 ± 2.2e-05 |  | 8.89e-05 ± 1.8e-05 |  |
| G44U C50U C71A | < 1e-05 | < 1e-05 |  |  |
| G37U C50U C58A G60C A64C | < 1e-05 | < 1e-05 | < 1e-05 |  |
| G7C C10G U45C | < 1e-05 |  |  |  |
| G13U A36G G43A G66C C70A | < 1e-05 | < 1e-05 | < 1e-05 |  |
| G13U C50G G59A | 0.0002 ± 7.6e-05 |  |  |  |
| C61G U65A | < 1e-05 | < 1e-05 | < 1e-05 | < 1e-05 |
| A33C U46C U56C G59C | < 1e-05 | < 1e-05 | < 1e-05 |  |
| G59C G63U C71A | < 1e-05 |  |  |  |
| A6C G37C U65A | < 1e-05 | < 1e-05 | < 1e-05 |  |
| A12C U49A C50A | < 1e-05 |  | < 1e-05 |  |
| C10A C16A U47C U65C | < 1e-05 | < 1e-05 |  |  |
| A6U C10A U30G A36G A42C U49C U65A | < 1e-05 | < 1e-05 | < 1e-05 |  |
| G32C U46A C50A A52U | < 1e-05 | < 1e-05 | < 1e-05 |  |
| U30A C50A | < 1e-05 |  |  |  |
| G35A C68U C70G | < 1e-05 | < 1e-05 | < 1e-05 |  |
| C8A C11U C50G A53U G63A | 0.00012 ± 2.8e-05 | 0.000594 ± 0.00015 | 9.63e-05 ± 3.3e-05 |  |
| A6G G29C C70G | < 1e-05 |  | < 1e-05 | < 1e-05 |
| C16A A33G | < 1e-05 |  |  | < 1e-05 |
| U30A G32A A39G | 6.92e-05 ± 2.4e-05 | 0.000602 ± 0.00013 | 0.000618 ± 0.0002 | 0.00306 ± 0.00073 |
| G9U G13U G32A U47A G62A | < 1e-05 |  |  |  |
| G35U G66C | < 1e-05 | < 1e-05 | < 1e-05 |  |
| C10U A12U G40U A48G G60A | 7.46e-05 ± 2.7e-05 |  |  |  |

| Variant | self-cleavage kobs at 160 uM GlcN6P (glucosamine-6-phosphate [1]) [s⁻¹] | self-cleavage kobs at 640 uM GlcN6P (glucosamine-6-phosphate [2]) [s⁻¹] | self-cleavage kobs at 2500 uM GlcN6P (glucosamine-6-phosphate [3]) [s⁻¹] | self-cleavage kobs at 10000 uM GlcN6P (glucosamine-6-phosphate [4]) [s⁻¹] |
| --- | --- | --- | --- | --- |
| G41U C50U | < 1e-05 | < 1e-05 | < 1e-05 | < 1e-05 |
| A42C U54C A64G C68A | < 1e-05 | < 1e-05 | < 1e-05 | < 1e-05 |
| C16G A39C U45C A48C | < 1e-05 | < 1e-05 |  |  |
| C11U A15G G44U G60U | < 1e-05 | < 1e-05 | < 1e-05 |  |
| A12G G41U C50U | < 1e-05 | < 1e-05 | < 1e-05 |  |
| G29A G62A | < 1e-05 | < 1e-05 | < 1e-05 |  |
| A42U A52G C68G | < 1e-05 |  | < 1e-05 |  |
| C34A U54A | < 1e-05 |  | < 1e-05 |  |
| G13A A53C C67G | < 1e-05 | < 1e-05 |  | < 1e-05 |
| A53U G62U A64U | < 1e-05 | < 1e-05 | < 1e-05 |  |
| G32C C71U | < 1e-05 |  | 2.98e-05 ± 1.2e-05 | 9.6e-05 ± 1e-05 |
| A39C G51A C61A | < 1e-05 |  | < 1e-05 |  |
| A33G G40C G63U | < 1e-05 | < 1e-05 | < 1e-05 |  |
| G7U A12G G32U | < 1e-05 |  |  |  |
| C10A C34U U55G | < 1e-05 |  | < 1e-05 |  |
| G7U G13U A15C | < 1e-05 | < 1e-05 | < 1e-05 |  |
| U30A G59U C61U | < 1e-05 | < 1e-05 |  |  |
| A39C G63C | < 1e-05 | < 1e-05 | < 1e-05 | < 1e-05 |
| C58G U69C | 6.56e-05 ± 2e-05 | 0.000102 ± 3.1e-05 | 0.00011 ± 3.2e-05 |  |
| A33U G37U G43A | < 1e-05 |  |  |  |
| C11G A12U G13U C58U C68G | 7.71e-05 ± 2.9e-05 | 0.000363 ± 0.00016 |  |  |
| G9C G44U | < 1e-05 | < 1e-05 | < 1e-05 | < 1e-05 |
| U17C C50G C71U | 6.74e-05 ± 2.2e-05 | 0.000319 ± 9.7e-05 | 0.000253 ± 4.6e-05 |  |
| U30G G40U A42C C58A | < 1e-05 | < 1e-05 | < 1e-05 |  |
| A6G G40U U54A | < 1e-05 | < 1e-05 |  |  |

| Variant | self-cleavage kobs at 160 uM GlcN6P (glucosamine-6-phosphate [1]) [s⁻¹] | self-cleavage kobs at 640 uM GlcN6P (glucosamine-6-phosphate [2]) [s⁻¹] | self-cleavage kobs at 2500 uM GlcN6P (glucosamine-6-phosphate [3]) [s⁻¹] | self-cleavage kobs at 10000 uM GlcN6P (glucosamine-6-phosphate [4]) [s⁻¹] |
| --- | --- | --- | --- | --- |
| C8U A42G G63A | < 1e-05 | < 1e-05 | < 1e-05 |  |
| A6C G66C | < 1e-05 | < 1e-05 |  |  |
| U30G G35U G44U U46G U65C | < 1e-05 | < 1e-05 | < 1e-05 |  |
| G44U C71G | < 1e-05 | < 1e-05 |  | < 1e-05 |
| G9U C34G G40C A48U C61U | < 1e-05 |  |  |  |
| A12C G35U G41U | < 1e-05 | < 1e-05 |  |  |
| C50G C67G | 7.32e-05 ± 1.3e-05 | 5e-05 ± 7.7e-06 |  |  |
| C10U C16U G38C | < 1e-05 | < 1e-05 | < 1e-05 |  |
| C11U A14C A39G U69A | < 1e-05 |  |  |  |
| A48U G60U C68U | < 1e-05 |  | < 1e-05 |  |
| C11G G29A G37U | < 1e-05 | < 1e-05 |  |  |
| U57G C58G A64G | 6.2e-05 ± 2.9e-05 | 8.58e-05 ± 3.5e-05 | 4.48e-05 ± 1.9e-05 |  |
| A42G C61A C67A | 0.000467 ± 0.00018 |  |  |  |
| G13U A15U A36C A42G G59C C67G | < 1e-05 |  |  |  |
| U30C G35U A39C | < 1e-05 |  | < 1e-05 |  |
| A36U U56C | < 1e-05 | < 1e-05 |  | < 1e-05 |
| G35A G63C | < 1e-05 | < 1e-05 | < 1e-05 |  |
| A48G C50A C61G C67A C68U | 8.22e-05 ± 2.2e-05 | 8.1e-05 ± 3.2e-05 | 9.85e-05 ± 2.5e-05 |  |
| C16A A52U | < 1e-05 |  |  | 3.13e-05 ± 8.8e-06 |
| A14C A39G C58G G60U G62U | < 1e-05 |  | < 1e-05 |  |
| U54A U57A U65C | < 1e-05 |  |  |  |
| G35A U54G | < 1e-05 | < 1e-05 | < 1e-05 |  |
| G7C C70G | < 1e-05 | < 1e-05 | < 1e-05 |  |
| G41A C67U | < 1e-05 | < 1e-05 | < 1e-05 |  |
| A12U G35C | < 1e-05 | < 1e-05 |  | < 1e-05 |

| Variant | self-cleavage kobs at 160 uM GlcN6P (glucosamine-6-phosphate [1]) [s⁻¹] | self-cleavage kobs at 640 uM GlcN6P (glucosamine-6-phosphate [2]) [s⁻¹] | self-cleavage kobs at 2500 uM GlcN6P (glucosamine-6-phosphate [3]) [s⁻¹] | self-cleavage kobs at 10000 uM GlcN6P (glucosamine-6-phosphate [4]) [s⁻¹] |
| --- | --- | --- | --- | --- |
| U31A A42C C70G | < 1e-05 | < 1e-05 |  |  |
| G35C A36G U49C A53C C68U | < 1e-05 | < 1e-05 | < 1e-05 |  |
| G7U A12C G41A | < 1e-05 |  | < 1e-05 |  |
| U31A G63C C68G | < 1e-05 |  |  |  |
| G7A G37C A64G | < 1e-05 |  |  |  |
| C11U G44U G60A C61G | < 1e-05 | < 1e-05 | < 1e-05 | < 1e-05 |
| G9C G29U C50G C70G | 0.000652 ± 0.00019 | 0.000131 ± 4.2e-05 | 0.000253 ± 9.9e-05 |  |
| A14G U57A | 4.7e-05 ± 1.1e-05 | 0.000139 ± 2.9e-05 | 0.000418 ± 4.7e-05 |  |
| G29A U31G C50U C68A | 5.27e-05 ± 2.2e-05 | 7.43e-05 ± 2.9e-05 | 8.2e-05 ± 3.2e-05 |  |
| G29A U65A C70U | 7.19e-05 ± 3e-05 | 8.13e-05 ± 1.7e-05 | 0.000148 ± 3.6e-05 |  |
| C10U A39U G59A C70U | < 1e-05 |  | < 1e-05 |  |
| G9C C11A C16U G35C U54C G62A | < 1e-05 | < 1e-05 |  |  |
| A6U G38C A64U G66U | < 1e-05 | < 1e-05 | < 1e-05 |  |
| G38A G41C | < 1e-05 | < 1e-05 | < 1e-05 | < 1e-05 |
| A15G C16G A42G C67G | 7.28e-05 ± 3.4e-05 | 0.000348 ± 6.7e-05 | 0.000115 ± 3.5e-05 | 0.000521 ± 0.00022 |
| G37U A48C C68U | < 1e-05 | < 1e-05 |  |  |
| G9U C11U G38C | < 1e-05 | < 1e-05 | < 1e-05 |  |
| C8U U56G | < 1e-05 | < 1e-05 | < 1e-05 |  |
| G13C U31G G43U | < 1e-05 |  | < 1e-05 |  |
| G7U A14U U55C C70U | < 1e-05 |  |  |  |
| A42U U56G C61U | < 1e-05 |  |  |  |
| G29U A42U A48U G62A | < 1e-05 |  | < 1e-05 |  |
| C11U A14G A39G G60C | < 1e-05 | < 1e-05 |  |  |
| A12G G44C | < 1e-05 | < 1e-05 | < 1e-05 |  |
